In data set [1] the target is T1, Human Serum Albumin (human, UniProt P02768 25-609).
T1 construct: also called HSA; antigen
In words: BIAcore, supernatant over immobilised HSA (6036 RU).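 Also: expressed culture supernatants of mutant clones diluted 1:1 in HBS-EP buffer and screened for binding.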 Background: Surface plasmon resonance follows binding to a sensor surface in real time, without labels.
Description: Screening of expressed supernatants for Protein L and HSA binding: Mutant clones were picked into a 96 well plate format and expressed in 1 mL 2×TY 0.1 mg/ml carbenicillin supplemented with OnEx solutions 1, 2 and 3 according to the manufacturer's instructions (Novagen). Cultures were grown at 30° C. for 3 days at 950 rpm high humidity in an InforsHT shaker. Cells were pelleted by centrifugation (4.5 k in a bench top Sorvall centrifuge for 30 mins) and 75 μL of the supernatant added to an equal volume of HBS-EP buffer (GE Healthcare).

Data set [2] deals with the molecule itself. In words: analytical ultracentrifugation (sedimentation equilibrium), self-association.
Description: In the present examples, three 6-channel equilibrium cells were loaded with 9 protein solutions made by diluting the stock sample 10-, 20-, 30-, 150-, 200-, 300-, 400-, 500, and 600-fold (a range from 540 to 90 μg/ml). Each sample channel was loaded with 120 μl of protein solution and the reference channels were loaded with 125 μl of Dulbecco's phosphate-buffered saline (DPBS) dilution buffer. These cells were then loaded into an AN90-TI rotor and placed into a Beckman Coulter ProteomeLab XL-1 analytical centrifuge equipped with both absorbance and Rayleigh interference (refractive index detection) optical systems. Absorbance scans for the three highest concentrations were recorded at 280 nm; for the lowest concentrations 230 nm was used. The temperature was set at 25° C.
Data set [3] deals with T1, Human Serum Albumin. The experiment in a line: SPR (Biacore 2000), purified dAb over HSA (559 RU) on CM5 chip.
Excerpt: (§1) The data analysis followed routine and established algorithms using the instrument's software (Bia-evaluation 3.2 RC1).
The target in data set [4] is T1, Human Serum Albumin. The description is as above. The source holds these as a separate data set.
Excerpt: as §1
For data set [5], the target named is T1, Human Serum Albumin. In words: BIAcore, purified protein over HSA (559 RU).
Data set [6] deals with T1, Human Serum Albumin. The experiment in a line: SPR (Biacore 2000), purified dAb over HSA (559 RU) on CM5 chip; Table 13 cell, backed by its kon and koff.
Excerpt: as §1
Data set [7] concerns the target Protein L (Peptostreptococcus magnus). The experiment in a line: BIAcore 3000, over Protein L (~500-700 RU).
The target is the same in data set [8]. In words: BIAcore 3000, over Protein L; statistic over the plates analysed.

T1 sequence (P02768 25-609 limits assumed): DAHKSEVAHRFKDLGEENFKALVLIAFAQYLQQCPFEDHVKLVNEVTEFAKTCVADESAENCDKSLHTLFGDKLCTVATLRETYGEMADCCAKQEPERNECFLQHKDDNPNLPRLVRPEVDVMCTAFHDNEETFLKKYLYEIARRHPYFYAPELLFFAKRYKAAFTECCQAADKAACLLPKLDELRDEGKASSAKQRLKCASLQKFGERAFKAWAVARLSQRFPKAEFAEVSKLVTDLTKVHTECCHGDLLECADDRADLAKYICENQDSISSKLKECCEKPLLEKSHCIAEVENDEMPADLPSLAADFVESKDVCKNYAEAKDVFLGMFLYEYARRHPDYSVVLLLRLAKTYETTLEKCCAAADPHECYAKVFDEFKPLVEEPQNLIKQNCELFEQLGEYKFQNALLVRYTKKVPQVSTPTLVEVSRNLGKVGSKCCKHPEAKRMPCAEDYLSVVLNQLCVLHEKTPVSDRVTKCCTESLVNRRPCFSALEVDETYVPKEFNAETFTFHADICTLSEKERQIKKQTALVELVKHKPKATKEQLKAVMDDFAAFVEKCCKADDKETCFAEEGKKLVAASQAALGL

B1: DOM7h-14 (other)
VL: DIQMTQSPSSLSASVGDRVTITCRASQWIGSQLSWYQQKPGKAPKLLIMWRSSLQSGVPSRFSGSGSGTDFTLTISSLQPEDFATYYCAQGAALPRTFGQGTKVEIKR
notes: also called 7h14 wt
The term Kd denotes the equilibrium constant for the complex coming apart. In the case of B1, the binding result in data set [1] is reported as “binds”. This molecule yielded a Kd in data set [2] of 250000 nM.

B2: DOM7h-14-10 (other)
VL: DIQMTQSPSSLSASVGDRVTITCRASQWIGSQLSWYQQKPGKAPKLLIMWRSSLQSGVPSRFSGSGSGTDFTLTISSLQPEDFATYYCAQGLRHPKTFGQGTKVEIKR
notes: also called DOM7h-14-10 parent
Broadly, the koff is a measure of how fast the partners let go of each other. Read a high koff as fast dissociation. The kon is a measure of how fast the partners come together. Low readings indicate slow association, high ones fast association. In data set [3], B2 yielded a Kd of 26 nM, a koff of 0.017 s⁻¹ and a kon of 670000 M⁻¹ s⁻¹.

B3: DOM7h-14 Q38Y (other)
VL: DIQMTQSPSSLSASVGDRVTITCRASQWIGSQLSWYQYKPGKAPKLLIMWRSSLQSGVPSRFSGSGSGTDFTLTISSLQPEDFATYYCAQGAALPRTFGQGTKVEIKR
Turning to B3, the binding result in data set [1] is “binds”.

B4: DOM7h-14 Q38E (other)
VL: DIQMTQSPSSLSASVGDRVTITCRASQWIGSQLSWYQEKPGKAPKLLIMWRSSLQSGVPSRFSGSGSGTDFTLTISSLQPEDFATYYCAQGAALPRTFGQGTKVEIKR
With B4, in data set [1], the binding result was “binds”.

B5: DOM7h-14 Q38S (other)
VL: DIQMTQSPSSLSASVGDRVTITCRASQWIGSQLSWYQSKPGKAPKLLIMWRSSLQSGVPSRFSGSGSGTDFTLTISSLQPEDFATYYCAQGAALPRTFGQGTKVEIKR
Regarding B5, in data set [1], the binding result is reported as “binds”.

B6: DOM7h-14 Q38T (other)
VL: DIQMTQSPSSLSASVGDRVTITCRASQWIGSQLSWYQTKPGKAPKLLIMWRSSLQSGVPSRFSGSGSGTDFTLTISSLQPEDFATYYCAQGAALPRTFGQGTKVEIKR
With B6, the binding result in data set [1] is recorded as “binds”.

B7: DOM7h-14 Q38I (other)
VL: DIQMTQSPSSLSASVGDRVTITCRASQWIGSQLSWYQIKPGKAPKLLIMWRSSLQSGVPSRFSGSGSGTDFTLTISSLQPEDFATYYCAQGAALPRTFGQGTKVEIKR
Consider B7, for which the binding result in data set [1] is “binds”.

B8: DOM7h-14 Q38V (other)
VL: DIQMTQSPSSLSASVGDRVTITCRASQWIGSQLSWYQVKPGKAPKLLIMWRSSLQSGVPSRFSGSGSGTDFTLTISSLQPEDFATYYCAQGAALPRTFGQGTKVEIKR
For B8, the binding result in data set [1] is given as “binds”.

B9: DOM7h-14 Q38K (other)
VL: DIQMTQSPSSLSASVGDRVTITCRASQWIGSQLSWYQKKPGKAPKLLIMWRSSLQSGVPSRFSGSGSGTDFTLTISSLQPEDFATYYCAQGAALPRTFGQGTKVEIKR
For the molecule B9, the binding result in data set [1] is recorded as “binds”.

B10: DOM7h-14 Q38P (other)
VL: DIQMTQSPSSLSASVGDRVTITCRASQWIGSQLSWYQPKPGKAPKLLIMWRSSLQSGVPSRFSGSGSGTDFTLTISSLQPEDFATYYCAQGAALPRTFGQGTKVEIKR
Consider B10, for which the binding result in data set [1] is given as “binds”.

B11: DOM7h-14 Q38L (other)
VL: DIQMTQSPSSLSASVGDRVTITCRASQWIGSQLSWYQLKPGKAPKLLIMWRSSLQSGVPSRFSGSGSGTDFTLTISSLQPEDFATYYCAQGAALPRTFGQGTKVEIKR
On to B11, for which the binding result in data set [1] is listed as “binds”.

B12: DOM7h-14 Q38N (other)
VL: DIQMTQSPSSLSASVGDRVTITCRASQWIGSQLSWYQNKPGKAPKLLIMWRSSLQSGVPSRFSGSGSGTDFTLTISSLQPEDFATYYCAQGAALPRTFGQGTKVEIKR
Take B12: the binding result in data set [1] was “binds”.

B13: DOM7h-14-10 A43I (other, name in Kabat numbering)
VL: DIQMTQSPSSLSASVGDRVTITCRASQWIGSQLSWYQQKPGKIPKLLIMWRSSLQSGVPSRFSGSGSGTDFTLTISSLQPEDFATYYCAQGLRHPKTFGQGTKVEIKR
notes: also called A43I mutant of DOM7h-14-10
In the case of B13, in data set [4], the “fold improvement in antigen affinity over DOM7h-14-10” value was 2 fold. In data set [3], this molecule yielded a Kd of 13.1 nM, a koff of 0.012 s⁻¹ and a kon of 890000 M⁻¹ s⁻¹.

B14: DOM7h-14 Q38W (other)
VL: DIQMTQSPSSLSASVGDRVTITCRASQWIGSQLSWYQWKPGKAPKLLIMWRSSLQSGVPSRFSGSGSGTDFTLTISSLQPEDFATYYCAQGAALPRTFGQGTKVEIKR
Regarding B14, the binding result in data set [1] is “binds”.

B15: DOM7h-14-10 A43D (other, name in Kabat numbering)
VL: DIQMTQSPSSLSASVGDRVTITCRASQWIGSQLSWYQQKPGKDPKLLIMWRSSLQSGVPSRFSGSGSGTDFTLTISSLQPEDFATYYCAQGLRHPKTFGQGTKVEIKR
notes: also called A43D mutant of DOM7h-14-10
Take B15: the “fold improvement in antigen affinity over DOM7h-14-10” value in data set [4] came out at 2 fold. Also, in data set [3], binding was put at a Kd of 11.7 nM, the koff was 0.012 s⁻¹ and the kon is 990000 M⁻¹ s⁻¹.

B16: DOM7h-14 Q38F (other)
VL: DIQMTQSPSSLSASVGDRVTITCRASQWIGSQLSWYQFKPGKAPKLLIMWRSSLQSGVPSRFSGSGSGTDFTLTISSLQPEDFATYYCAQGAALPRTFGQGTKVEIKR
For B16, in data set [1], the binding result is given as “binds”.

B17: DOM7h-14 Q38G (other)
VL: DIQMTQSPSSLSASVGDRVTITCRASQWIGSQLSWYQGKPGKAPKLLIMWRSSLQSGVPSRFSGSGSGTDFTLTISSLQPEDFATYYCAQGAALPRTFGQGTKVEIKR
For B17, the binding result in data set [1] is reported as “binds”.

B18: DOM7h-14 Q38D (other)
VL: DIQMTQSPSSLSASVGDRVTITCRASQWIGSQLSWYQDKPGKAPKLLIMWRSSLQSGVPSRFSGSGSGTDFTLTISSLQPEDFATYYCAQGAALPRTFGQGTKVEIKR
As to B18, in data set [1], the binding result was “binds”.

B19: DOM7h-14 Q38R (other)
VL: DIQMTQSPSSLSASVGDRVTITCRASQWIGSQLSWYQRKPGKAPKLLIMWRSSLQSGVPSRFSGSGSGTDFTLTISSLQPEDFATYYCAQGAALPRTFGQGTKVEIKR
For B19, the binding result in data set [1] is “binds”.

B20: DOM7h-14 Q38M (other)
VL: DIQMTQSPSSLSASVGDRVTITCRASQWIGSQLSWYQMKPGKAPKLLIMWRSSLQSGVPSRFSGSGSGTDFTLTISSLQPEDFATYYCAQGAALPRTFGQGTKVEIKR
In the case of B20, the binding result in data set [1] is “binds”.

B21: DOM7h-14 Q38C (other)
VL: DIQMTQSPSSLSASVGDRVTITCRASQWIGSQLSWYQCKPGKAPKLLIMWRSSLQSGVPSRFSGSGSGTDFTLTISSLQPEDFATYYCAQGAALPRTFGQGTKVEIKR
For the molecule B21, the binding result in data set [1] is given as “binds”.

B22: DOM7h-14 Q38H (other)
VL: DIQMTQSPSSLSASVGDRVTITCRASQWIGSQLSWYQHKPGKAPKLLIMWRSSLQSGVPSRFSGSGSGTDFTLTISSLQPEDFATYYCAQGAALPRTFGQGTKVEIKR
For the molecule B22, in data set [1], the binding result is recorded as “binds”.

B23: DOM7h-8 L46D (other)
VL: DIQMTQSPSSLSASVGDRVTITCRASQSISSYLNWYQQKPGKAPKDLIYRNSPLQSGVPSRFSGSGSGTDFTLTISSLQPEDFATYYCQQTYRVPPTFGQGTKVEIKR
Turning to B23, the binding result in data set [5] is recorded as “binds”.

B24: DOM7h-8 Y87L (other)
VL: DIQMTQSPSSLSASVGDRVTITCRASQSISSYLNWYQQKPGKAPKLLIYRNSPLQSGVPSRFSGSGSGTDFTLTISSLQPEDFATYLCQQTYRVPPTFGQGTKVEIKR
With B24, the binding result in data set [5] is on record as “binds”.

B25: DOM7h-11-15 (other)
VL: DIQMTQSPSSLSASVGDRVTITCRASRPIGTMLSWYQQKPGKAPKLLILAFSRLQSGVPSRFSGSGSGTDFTLTISSLQPEDFATYYCAQAGTHPTTFGQGTKVEIKR
notes: also called DOM7h-11-15 parent
Consider B25, for which, in data set [3], the koff was found to be 0.0045 s⁻¹ and the kon amounted to 12000 M⁻¹ s⁻¹. The same molecule displayed a Kd in data set [6] of 384 nM.

B26: DOM7h-11-15 A43D (other, name in Kabat numbering)
VL: DIQMTQSPSSLSASVGDRVTITCRASRPIGTMLSWYQQKPGKDPKLLILAFSRLQSGVPSRFSGSGSGTDFTLTISSLQPEDFATYYCAQAGTHPTTFGQGTKVEIKR
notes: also called A43D mutant of DOM7h-11-15
For B26, in data set [3], the Kd stood at 7000 nM, the koff was 0.0047 s⁻¹ and the kon turned out to be 664 M⁻¹ s⁻¹.

B27: DOM7h-11-15 A43I (other, name in Kabat numbering)
VL: DIQMTQSPSSLSASVGDRVTITCRASRPIGTMLSWYQQKPGKIPKLLILAFSRLQSGVPSRFSGSGSGTDFTLTISSLQPEDFATYYCAQAGTHPTTFGQGTKVEIKR
notes: also called DOM7h-11-15 A43I mutant
Take B27: in data set [4], the “fold improvement in antigen affinity over the DOM7h-11-15 parent” value stood at 1000 fold. Further, in data set [3], the Kd is 6.4 nM, the koff was 0.0049 s⁻¹ and the kon is 770000 M⁻¹ s⁻¹.

B28: DOM4-130-54 (protein)
VL: DIQMTQSPSSLSASVGDRVTITCRASQDIYLNLDWYQQKPGKAPKLLINFGSELQSGVPSRFSGSGYGTDFTLTISSLQPEDFATYYCQPSFYFPYTFGQGTKVEIKRA
For the molecule B28, the % B5 (proportion of dAb bound at 5 min of dissociation) in data set [7] is 4%. In data set [8], this molecule registered a % B5, 25% Percentile of 3.9%; a % B5, 75% Percentile of 4%; a % B5, Maximum of 4%; a % B5, Mean of 3.9%. Besides, in data set [8], the % B5, Median is 4% and the % B5, Minimum is 3.6%.

The record behind these values is patent publication US20130045895A1 (published 2013).
